A short description of this series: yeast display, Sf9 membrane polyspecificity reagent, FACS + sequencing; frameworks hold sequencing errors. An outline of the steps: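 Nanobodies from a synthetic yeast display library (Saccharomyces cerevisiae BJ5465), induced 36–48 hours with galactose, were stained 1 hour at 4 °C with 10% biotinylated, detergent-solubilized Sf9 membrane reagent, enriched on streptavidin microbeads, then FACS-sorted. Anti-HA (expression) and streptavidin (reagent binding) fluorescence set low and high (top ~1%) gates. Polyreactivity labels come from the gate of origin. Genes were colony-PCR amplified, MiSeq 2 × 250 sequenced and filtered by CDR length.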
Take “QVQLVESGGGLVQAGGSLRLICAASGRTFGYNAMGWYRQAPGKEREFVAAISWSGGRTYYADSVKGRFTISRDNAKNTVYLQMNSLKPEHSAVYYCAAGFGDGPGNGYYTRYSWDDDYWGQGTQVTVSS”: the “polyreactivity (PSR sort gate)” value was “low polyreactivity”.
On to “QVQLVESGGGLVQAGGSLRLICAASGRTFKYYAMGWYRQAPGKERELVATITWSGTSTNYADSVKRRFTISRDIGKNSVYLQMNSLKPEDSAVYYCAARSKRRNYDYWGQGTQVTVSS”, for which the “polyreactivity (PSR sort gate)” value was “high polyreactivity”.
The entry for “QVQLVESGGGLVQAGGSLRLICAASGRTFNSNVMGRSRQAPGKERELVAAISGSSGSTRYADSVKGRFTISRDNAKNTVYLQMNSLKPEDTEVYYCAAYPLYRRRWTGDYWGQGTQVTVSS” is “high polyreactivity”.
With “QVQLVESGGGLVQAGGSLRLICAASGRTFRYNAMGWYSQPHRKERELFAAINGGGSTYYADTVKGRFTISRDNAKNTVFLQMKSLKPEDTAVYYCAAANWRRNDYRYRFDYWGQGTQVTVSS”, the “polyreactivity (PSR sort gate)” value was “high polyreactivity”.
The entry for “QVQLVESGGGLVQAGGSLRLICAASGRTFWNYAMGWYRQAPGKERELVAVISFSDGSTYYADSVKGRFTISRDNAKNTVYLQMNSLKPEDTAVYYGAAKGPRRWGSGFDYWGQGTQVTVSS” is “low polyreactivity”; for “QVQLVESGGGLVQAGGSLRLICAASGRTFYSYAMGWYRQAPGKERELVAAISSGGTTYYADSVKGRFTISRDNAKNTDYLQMNSLKPEDTAVYYCATSRAWRYRSYYWGQGTQVTVSS” it is “high polyreactivity”; for “QVQLVESGGGLVQAGGSLRLICAASGRTFYYYAMGWDRQAPGKERELVASISYSAGRTYADSVKGRFTISRDNAKNTVYLLMNSLKPEDTAVYYCAAALYVNPYNYGTARWYYYWGQGTQVTVSS” it is “high polyreactivity”.
Take “QVQLVESGGGLVQAGGSLRLICAASGRTLSGYAMGWYRQAPGKERELVAAISSDGRTYYADSVKGRFTISRDNAKNTVYLQMNSLKPEDTAVYYCAKVRRGSYGYWGQGTQVTVSS”: the “polyreactivity (PSR sort gate)” value is given as “high polyreactivity”.
As for “QVQLVESGGGLVQAGGSLRLICAASGRTSVVNAMGWYRQAPGKERELVAAITSGGSTHYADSVKGRFTISRDNAKNTVYLQITSLKPEDTAGYYFNARDRRRTNLLDYWGQATQVTVSS”, the entry is “low polyreactivity”; as for “QVQLVESGGGLVQAGGSLRLICAASGSIFAGNAMGWYRQAPGKERELVADITSGDSTYYADSVKGRFTISRDNAKNTVYLQMNSLKPEDTAVYYCAADSWDSQVVSYEYWGQGTQVTVSS”, “low polyreactivity”; as for “QVQLVESGGGLVQAGGSLRLICAASGSIFAVNAMGWYRQAPGKERELVAAISRRGGSTYYADSVKGRFTISRDNAKITDYLQMNSLKPEDTAVYYCAKRWKATRARYDYWGQGTQVTVAS”, “high polyreactivity”.
The entry for “QVQLVESGGGLVQAGGSLRLICAASGSIFDVNAMGWYRQAPWKERELVAAISDSGGSTYYADSVKGRFTISRDNAKITVYLQMNSLKPEDTAVYYCNAVWSWYNYDDFDYWGQGTQVTVSS” is “low polyreactivity”; for “QVQLVESGGGLVQAGGSLRLICAASGSIFDWYDMGWYRQAPGKERELVAAITTGGITNYADSVKGRFTFSRDNAKNSVYLQMNSLKPEDTAVYYCNADFSVEFDYWGQGTQVNVSS” it is “low polyreactivity”.
The entry for “QVQLVESGGGLVQAGGSLRLICAASGSIFGGYAMGWYIQAPGKERELVARITNGGSTYYADSVKGRFTISRDNAKNTVYLQMNSLKPEDTAVYYCNADWYAYPYGYWGQGTQVTVST” is “low polyreactivity”; for “QVQLVESGGGLVQAGGSLRLICAASGSIFGNYVMGWYRQAPGKEMELVAGISTRGGSTYYADSVKGRFTISRDNAKNTVYLQMNCLKPEDTAVYYCAAVPASYRYPMYYWGQGTQVTVSS” it is “low polyreactivity”.
Take “QVQLVESGGGLVQAGGSLRLICAASGSIFGRYAMGWYRQAPGKERELVAAITGSGGTTYYADSVKGRFTISRDNAKNTVYLQMNSLKPEDTAVYYCAADPQVYYSGRPRYDYWGQGTQVTVSS”: the “polyreactivity (PSR sort gate)” value is reported as “high polyreactivity”.
As for “QVQLVESGGGLVQAGGSLRLICAASGSIFGRYSMGWYRQAPGKERELVAAINYSGGRTYYADSVKGRVTISRDNAKNTVYLQMNSLKPEDTAVYYCAAAQFPDRNYNYWGQGTQVTVSS”, the entry is “high polyreactivity”; as for “QVQLVESGGGLVQAGGSLRLICAASGSIFGWNAMGWYRQAPGKERELVASITWSGGRTYYADSVKGRFTISRDNAKNTVYLQMNSLKPEDTAVYYCAADYKPTSRSNKYYYWGQGTQVTVSS”, “high polyreactivity”.
Regarding “QVQLVESGGGLVQAGGSLRLICAASGSIFGYNAMVWYRQAPGKERELVAVINASGASTYYADSVKGRFTISRDNAKNTVYLHMNSLKPEDTAVYSCAKDPFPFPGGDYWGQGTQVTVSS”, the “polyreactivity (PSR sort gate)” value was “low polyreactivity”.
The entry for “QVQLVESGGGLVQAGGSLRLICAASGSIFKYYAMGLYRQAPGKERDLVAANRWSGGSTYYADSVKGRFTISRDNAKNTVYLQMNRLKPEDTAVYYCAAEYFNQNTRQGYDYWGQGTQVTVSS” is “low polyreactivity”; for “QVQLVESGGGLVQAGGSLRLICAASGSIFRSYSMGWYRQAPGKERELVAGINRSGASTYYADSVKGRFTISRDNAKNTVYLQMNSMKPEDTAVSYCNARAQRGGYNYWGQGTQVTVSS” it is “high polyreactivity”; for “QVQLVESGGGLVQAGGSLRLICAASGSIFTHNTMGWYRQAPGKERELVASIDSGASTNYADSVKGRFTISRDNAKNTVYLQMNSLKPEDTAVYYCAADDAKFRYRDDYWGQGTQVTVSS” it is “low polyreactivity”.
With “QVQLVESGGGLVQAGGSLRLICAASGSIFTPYAMGWYRQAPGKERELVAAISTSGGSTYYADSVKGRFTISRDNAKNTVYLQMNSLKPEDTAVYYCYTVYYSQREIYYWGYDSWGQGTQVTVSS”, the “polyreactivity (PSR sort gate)” value was “high polyreactivity”.
For the sequence “QVQLVESGGGLVQAGGSLRLICAASGSIFVLYAMGWYRTAPGKERELVAAINYDGASTYYADSVKGRFTISRDNANNTFYLQMNSLKPKDTAVYYCAADVSYPVIYEYDYGGQGTQVTVSS”, the “polyreactivity (PSR sort gate)” value was “low polyreactivity”.
“QVQLVESGGGLVQAGGSLRLICAASGSIFYEYAMGWYRQAPGKEREFVASISWSGGITSYADSVKGRFTISRDNAKNTVYLQMNSLKPEDTAVYYCAADFSWYLYDYDYWGQGTQVTVSS”: the “polyreactivity (PSR sort gate)” value is given as “low polyreactivity”.
The entry for “QVQLVESGGGLVQAGGSLRLICAASGSIFYRNAMGWYRQAPGKERELVAVITDGGTTSYADSVKGRFTISRDNAKNTVYLQMNSLKPEDTAVYYCAADRQPVYPSLGVYWDYGHDYWGQGTQVTVSS” is “low polyreactivity”; for “QVQLVESGGGLVQAGGSLRLICAASGSIIGANAMGWSRQAPGKERELGAAITDNTSTTFYADSVKGRFTISRDIAKNTVYLQMNSLKPEDTAVYYCNADRAVVLSTPLWGEYDYWGQGTQVTVSS” it is “low polyreactivity”; for “QVQLVESGGGLVQAGGSLRLICAASGSILYRYAMGWYRQAPGKERELVASISWSDGSTYYADSVKGRFTISRDNAKNTLYLQMNSLKPEDTAVYYCAAKGWGSDSYYAYGYDYWGQGTQVTVSS” it is “low polyreactivity”.
As for “QVQLVESGGGLVQAGGSLRLICAASGSISTPYTMGWYRQAPGKERELVAAISWIGDTTSYADSVKGRFTISRDNAKNTVYLQMNSLKPEDTAVYYCNAEHRGYDYWGQGTQVTVSS”, the “polyreactivity (PSR sort gate)” value is given as “low polyreactivity”.
Regarding “QVQLVESGGGLVQAGGSLRLICAASGSTFAQNTMGWYRQAPGKERELVATISDGGGSTYYADSVKGRFTISRDNAKNTVYLQMNSLKPEDTSVYYCNTDRFWPSDFWGQGTQVTVSS”, the “polyreactivity (PSR sort gate)” value is “low polyreactivity”.
The entry for “QVQLVESGGGLVQAGGSLRLICAASGSTFARYAMGWYRQAPGKERELVAVIRSGGSTNYADSVKGRFTISRDNAKNTVYLQMNSMKTEDTAGAADQWTIHRWATYGYWGQGTQVTVSS” is “low polyreactivity”; for “QVQLVESGGGLVQAGGSLRLICAASGSTFAYNDMGWYRQAPGTERELVADIRSGGNTNYADSVKGRFTISRDNAKNTVYLQMNSLKPEDTAVYYCATDGYRIDVYHPDYRYDYWGQGTQVTVSS” it is “low polyreactivity”; for “QVQLVESGGGLVQAGGSLRLICAASGSTFDQNVMGWYRQAPGKDRELVGTINFSGDSTYYADSVKGRFTISRDNAKNTVYLQMNSLKPEDPAVYYCAVDWGEYIDTSVKRDISYYWGQGTQVTVSS” it is “low polyreactivity”.
The entry for “QVQLVESGGGLVQAGGSLRLICAASGSTFEAYAMGWYRQAPGKDSELVAAIRSSGSTSYADSVKGRFTISRDNAKNTVYLQMKSLKPEDTALYYGAARVRGYPRYKRDYWGQGTQVTVSS” is “high polyreactivity”.
As to “QVQLVESGGGLVQAGGSLRLICAASGSTFFYYAMGWYRQAPGKERELVARISGGGSTNYADSVKGRFTISRDNAKNTVYLKMNSLNPEDTAVYYCAADRYHYYRYSYGRYGYWGQCTQVTVSS”, the “polyreactivity (PSR sort gate)” value is listed as “high polyreactivity”.
As for “QVQLVESGGGLVQAGGSLRLICAASGSTFGANAMGWYRQAPGKEREFVAAISGSGTTTYYADSVKGRFTISRDNAKNTVYLQMNSLKPEDTPVYYCAKTRKAHWLEYWGQGTQVTVSS”, the entry is “low polyreactivity”; as for “QVQLVESGGGLVQAGGSLRLICAASGSTFGLNTMGWYRQAPGKDRELVAGITWSGGTTYYADSVKGRFTISRDNAKNTVYLQMNSLKPEDTAVYYCAAAVCDHYWYSRAYYYWGQGTQVTLSS”, “high polyreactivity”.
With “QVQLVESGGGLVQAGGSLRLICAASGSTFKWYAMGWYRQAPGKERELVAAISSSGGTTYYADSVKGRFTISRDNAKNTVYLQMNSLKPEDTAVYYCAKPYLYSGYGYWGQGTQVTVSS”, the “polyreactivity (PSR sort gate)” value is recorded as “high polyreactivity”.
For the sequence “QVQLVESGGGLVQAGGSLRLICAASGSTFLGYAMGWYRQAPGKERELVAAITYSAGSTYYADSVKGRFTISRDNAKNTVYLQMNSLKPEDTAVYYCAKRYSGYDHWGQGTQVTVSS”, the “polyreactivity (PSR sort gate)” value is recorded as “low polyreactivity”.
For “QVQLVESGGGLVQAGGSLRLICAASGSTFNGYVMGWYRKAPGKERELVAAISRSGGSTYYADSVKGRFTNSRDNAKNTVYLQMNSLKPEDTAVYDCAAAPPLAGLGGYYWGQGTQVTVSS”, the “polyreactivity (PSR sort gate)” value is “high polyreactivity”.
With “QVQLVESGGGLVQAGGSLRLICAASGSTFNIKAMGWYRQAPGKERELVAAISSRGGSTYYADSVKGRFTISRDNAKNTVYLQMNSLKPEDTAVYYCALAAGIPQRRYYYWGQGTQVTVSS”, the “polyreactivity (PSR sort gate)” value is “high polyreactivity”.

The record behind these values is the nanobody polyreactivity screen of Harvey et al. (2022).
